Test results: PMC3909270, “The basic keratin 10-binding domain of the virulence-associated pneumococcal serine-rich protein PsrP adopts a novel MSCRAMM fold” (Open Biology, 2014)

B1: Strep-Tag-II BR_(187–385) (KRT10-binding domain of the pneumococcal serine-rich repeat protein PsrP) [S. pneumoniae TIGR4] / KRT10 tail-rod-2B domain (KRT10-TRD) [human] (parent complex)
chain 1: FSGNTIVNGAPAINASLNIAKSETKVYTGEGVDSVYRVPIYYKLKVTNDGSKLTFTYTVTYVNPKTNDLGNISSMRPGYSIYNSGTSTQTMLTLGSDLGKPSGVKNYITDKNGRQVLSYNTSTMTTQGSGYTWGNGAQMNGFFAKKGYGLTSSWTVPITGTDTSFTFTPYAARTDRIGINYFNGGGKVVESSTTSQSLS
chain 2: LKQSLEASLAETEGRYCVQLSQIQAQISALEEQLQQIRAETECQNTEYQQLLDIKIRLENEIQTYRSLLEGEGSSGGGGRGGGSFGGGYGGGSSGGGSSGGGHGGGHGGSSGGGYGGGSSGGGSSGGGYGGGSSSGGHGGSSSGGYGGGSSGGGGGGYGGGSSGGGSSSGGGYGGGSSSGGHKSSSSGSVGESSS

Variants of: B1
Assay: ELISA; KRT10-TRD coated in wells of ELISA plates; parent: 1; read off a plot

Variant	response
chain 1 FSGNTIVNGAPAINASLNIAKSETKVYTGEGVDSVYRVPIYYKLKVTNDGSKLTFTYTVTYVNPKTNDLGNISSMRPGYSIYNSGTSTQTMLTLGSDLGKPSGVKNYITDKNGRQVLSYNTSTMTTQGSGYTWGAGAQMNGFFAKKGYGLTSSWTVPITGTDTSFTFTPYAARTDRIGINYFNGGGKVVESSTTSQSLS [chain 1 N135A]	~1.1 normalized absorbance
chain 1 FSGNTIVNGAPAINASLNIAKSETKVYTGEGVDSVYRVPIYYKLAVTNDGSKLTFTYTVTYVNPKTNDLGNISSMRPGYSIYNSGTSTQTMLTLGSDLGKPSGVKNYITDKNGRQVLSYNTSTMTTQGSGYTWGNGAQMNGFFAKKGYGLTSSWTVPITGTDTSFTFTPYAARTDRIGINYFNGGGKVVESSTTSQSLS [chain 1 K45A]	~0.97 normalized absorbance
